Several values for one entry are separate records, joined by “and”; a condition that tells them apart may be missing. Identical values can stand only once.
Settings: Bacillus amyloliquefaciens; pH 8; 22 °C; GdnHCl; Fluorescence; phosphate 20 mM; whole UniProt chain shown

B1: Barstar wild type, P11540 (protein)
chain: MKKAVINGEQIRSISDLHQTLKKELALPEYYGENLDALWDCLTGWVEYPLVLEWRQFEQSKQLTENGAESVLQVFREAKAEGCDITIILS
For B1, the denaturant m value was 2.5 kcal/mol/M and 1.45 kcal/mol/M and 2.2 kcal/mol/M and the unfolding free energy was 5.1 kcal/mol and 2.1 kcal/mol and 5.6 kcal/mol.

From FireProtDB (doi:10.1021/bi990285w)
